Laboratory results reported in patent publication US20210269818A1.

Target: Rubisco purified from wheat leaves, inhibited by RuBP (ER) (Triticum aestivum (wheat)) (UniProt P11383)
Experiment: cell-based or functional assay

Row | Tm (° C.) (V): thermal midpoint at which half of Rubisco activation velocity by Rca is lost | Substance
1 | 38.6 | Rca extracted from control wheat leaves (TaRca-leaf-25° C.) (enzyme)
2 | 39.5 | Rca extracted from heat treated wheat leaves (TaRca-leaf-38° C.) (enzyme)
3 | 42 | recombinant wheat Rca1 β (TaRca1-β), signal peptide deleted, C-terminal His-tag (from UniProt Q42450 44-425) (enzyme)
4 | 35.3 | recombinant wheat Rca2 α (TaRca2-α), signal peptide deleted, C-terminal His-tag (from UniProt Q40073 47-464) (enzyme)
5 | 34.8 | recombinant wheat Rca2 β (TaRca2-β), signal peptide deleted, C-terminal His-tag (from UniProt Q40073 49-427) (enzyme)

Row | Substance | Tm (° C.) (V): thermal midpoint at which half of Rubisco activation velocity by Rca is lost
6 | recombinant rice Rca β (OsRca-β), signal peptide deleted, C-terminal His-tag (from UniProt P93431 49-466) (enzyme) | 42.5
